This assay has as its system LS174T cells. The assay is described as follows: Apoptosis, Caspase-Glo 3/7 assay. It is filed as cell-based, human. To be noted: 50 nM recombinant TRAIL, 2 hrs.

B1: TRAIL: recombinant TRAIL (R&D Systems), positive control for apoptosis (protein, UniProt P50591 1-281, looked up)
Tumor necrosis factor ligand …: MAMMEVQGGPSLGQTCVLIVIFTVLLQSLCVAVTYVYFTNELKQMQDKYSKSGIACFLKEDDSYWDPNDEESMNSPCWQVKWQLRQLVRKMILRTSEETISTVQEKQQNISPLVRERGPQRVAAHITGTRGRSNTLSSPNSKNEKALGRKINSWESSRSGHSFLSNLHLRNGELVIHEKGFYYIYSQTYFRFQEEIKENTKNDKQMVQYIYKYTSYPDPILLMKSARNSCWSKDAEYGLYSIYQGGIFELKENDRIFVSVTNEHLIDMDHEASFFGAFLVG
With B1, the “apoptosis (caspase 3/7), positive control” value was “large increase in apoptosis”.

The record behind these values is US8685401B2, “Methods of enhancing the response to radiation in tumor therapy using anti-DLL4 antibodies” (priority 2011, dated 2014).
